Reference: patent US20210317229A1

molecular target: Recombinant EpCAM (R&D systems), conjugated with Alexa Fluor 647 (UniProt P16422); experiment: flow cytometry, AF647-labelled recombinant EpCAM at 360nM on HEK293T cells expressing the myc-tagged CAR; ratio to anti-myc-FITC signal
UniProt P16422, sequence (P16422 24-265 limits assumed): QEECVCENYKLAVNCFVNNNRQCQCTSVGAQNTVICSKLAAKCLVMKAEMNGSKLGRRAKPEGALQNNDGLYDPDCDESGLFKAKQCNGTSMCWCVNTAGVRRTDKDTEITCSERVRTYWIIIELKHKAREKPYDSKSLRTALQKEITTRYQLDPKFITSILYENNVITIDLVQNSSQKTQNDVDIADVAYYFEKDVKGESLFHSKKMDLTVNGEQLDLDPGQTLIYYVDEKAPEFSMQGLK

| MFIAF647/MFIFITC | Substance |
| --- | --- |
| 0.302 | CAR containing L4A scFv (UBS-54 variant, CDR-H3 DPFAHY) (from UniProt P01732 138-182; P10747 153-220; P20963 52-164) |
| 0.031 | CAR containing Y6L scFv (UBS-54 variant, CDR-H3 DPFLHL) (from UniProt P01732 138-182; P10747 153-220; P20963 52-164) |
| 0.016 | CAR containing F3A scFv (UBS-54 variant, alanine at CDR-H3 position 3) (from UniProt P01732 138-182; P10747 153-220; P20963 52-164) |
| 0.239 | CAR containing Y6F scFv (UBS-54 variant, CDR-H3 DPFLHF) (from UniProt P01732 138-182; P10747 153-220; P20963 52-164) |
| 0.026 | CAR containing Y6V scFv (UBS-54 variant, CDR-H3 DPFLHV) (from UniProt P01732 138-182; P10747 153-220; P20963 52-164) |
| 0.018 | CAR containing Y6A scFv (UBS-54 variant, CDR-H3 DPFLHA) (from UniProt P01732 138-182; P10747 153-220; P20963 52-164) |
| 0.246 | CAR containing D1A scFv (UBS-54 variant, CDR-H3 APFLHY) (from UniProt P01732 138-182; P10747 153-220; P20963 52-164) |
